From US9758785B2, “miR-520 microRNAs sensitize cancers to platinum-based therapy” (BAYLOR COLLEGE OF MEDICINE, priority 2012, dated 2017)
“Also recorded” adds a separate entry of the source.

Tests used:
[1] = tested on: phopho-CHK2 (T68); experiment: Western blot of phospho-CHK2 in OVCAR8 cells; assay type: cell-based, human; conditions: OVCAR8 with cisplatin
Protocol: (§1) Whole cell lysates equivalent to 30 μg of protein were resolved on 4-12% gradient SDS-PAGE. Resolved proteins were transferred onto PVDF membranes using the iBlot system (Invitrogen). Rabbit polyclonal and/or mouse monoclonal antibodies specifically recognizing ATM, phospo-ATM (Ser1981) CHK1 phospho-CHK1 (Ser216), p21, phospo-CHK2 ([…]), BCL2, XIAP, CDC25A were obtained from Cell Signaling Technologies (Danvers, Mass.). A rabbit polyclonal antibody recognizing FANCD2 was also purchased from Abcam (Cambridge, Mass.). Protein expression was visualized using species-specific, horseradish peroxidase-conjugated secondary antibody (Cell Signaling) and ECL Plus chemiluminescent substrate (Amersham, Buckinghamshire, UK).

[2] = tested on: SKOV3ip1 cells; experiment: Apoptosis assay (Caspase Glo 3/7); assay type: cell-based, human
Protocol: (§2) Established ovarian cancer cell lines were obtained from the ATCC (OVCAR8, OVCAR5) and the University of Texas M.D. Anderson Cancer Center (HEYA8, SKOV3ip1). All cell lines were maintained at 37° C. in RPMI 1640 media (Invitrogen, Carlsbad, Calif.) supplemented with 10% fetal bovine serums (Hyclone, Logan, Utah) and 1% penicillin/streptomycin (Gibco, Carlsbad, Calif.). MicroRNA mimics and mimic controls (Dharmacon, Lafayette, Colo.) were transiently transfected into actively growing cultures using Lipofectamine 2000 (Invitrogen, Carlsbad, Calif.). After a 24-hour incubation, transfected cultures were washed, passaged and seeded into 96 well plates. Proliferation and apoptosis were measured at 72, 96 and 120 hours after transfection using standard assays (Cell Titer 96 Aqueous One; Caspase Glo 3/7; Promega, Madison, Wis.). pLemiR expression vectors (Open Biosystems/Thermo, Huntsville, Ala.) were prepared according to manufacturer's instructions and transfected into cells using Fugene 6 (Roche, Indianapolis, Ind.). Following transfection, stable clones were selected using puromycin (Invitrogen) at doses optimized for each line. Rates of proliferation and apoptosis were examined in stable transfectants 24, 48, 72 and 96 hours after selected cells had been passaged and dispensed into 96 well plates. Viability was assessed across a clinically relevant range of cisplatin concentrations using an MTS assay (Promega). Cisplatin was obtained from Teva Pharmaceuticals (Irvine, Calif.).

[3] = tested on: HEY cells; experiment: Apoptosis assay (Caspase Glo 3/7); assay type: cell-based, human; conditions: mimic transfection
Protocol: as §2

[4] = tested on: OVCAR8 cells; experiment: Apoptosis assay (Caspase Glo 3/7); assay type: cell-based, human
Protocol: as §2

[5] = tested on: OVCAR5; experiment: Apoptosis assay (Caspase Glo 3/7); assay type: cell-based, human; conditions: OVCAR5, mimic transfection
Protocol: as §2

[6] = tested on: HEYA8 cells; experiment: Apoptosis assay (Caspase Glo 3/7); assay type: cell-based, human; conditions: HEYA8, acute mimic transfection
Protocol: as §2

[7] = tested on: OVCAR8 xenografts; experiment: Intraperitoneal ovarian cancer xenograft growth and metastasis; assay type: in vivo, mice; conditions: for Total intraperitoneal tumor burden: between the three groups
Protocol: Permission to perform animal experiments was obtained from the Institutional Animal Care and Use Committee (IACUC) for Baylor College of Medicine. Eight-week female athymic (Foxn1^nu/nu) mice were purchased from the National Cancer Institute-Charles River and maintained on a standard diet ad lib. Each animal was inoculated intraperitoneally with 2.5×10^6 cells stably transfected with vector driving miR-520h, a non-targeting miRNA control or empty vector. Expression of miR-520h was measured in cell lines using Taqman assays immediately prior to inoculation. Tumor xenografts were followed weekly for tumor progression or regression using the Image Station In-Vivo FX system (Kodak Molecular Imaging Systems, New Haven, Conn.) using endogenous RFP encoded by the pLemiR vector as a tag. At each time point, mice were anesthetized with isoflurane and placed in an imaging chamber, after which, fluorescent intensity images with x-ray overlay were obtained and analyzed. At the completion of the study, mice were euthanized after sedation under isoflurane (Abbott Laboratories, North Chicago, Ill.). For experiments involving treatment, cisplatin was administered at 5 mg/kg to mice by tail vein injection weekly for 4 weeks, after which, 1.5 mg/kg was administered biweekly. Tumor volume and distribution for all animals in each experiment were documented and correlated with imaging results.
The in vitro observations indicate that miR520g/h and/or miR-520a alter the proliferations of established ovarian cancer cell lines and in some embodiments are reasonably expected to promote their growth and metastasis in vivo. The inventors utilized xenograft models to characterize this embodiment. Foxn1^nu/nu mice were implanted subcutaneously or intraperitoneally with 2.5 million cells stably transfected with miR-520g/h, non-silencing microRNA control or empty vector alone. […] This difference was documented not only when tumor burden was measured according to the number and size of RFP active tumors that met imaging thresholds, but could also directly measured at necropsy (FIG. 5F). […]

[8] = tested on: SKOV3ip1 cells; experiment: Viability (MTS) across cisplatin concentrations, stable microRNA clones; assay type: cell-based, human; conditions: SKOV3ip1 stable clones vs non-silencing mimic
Protocol: as §2
(§3) For this reason, the inventors created clones of OVCAR8 and SKOV3ip1 ovarian cancer cell lines stably expressing either miR-520h (n=3) and miR-520a (n=3). […] To assess the impact of these microRNAs on cisplatin-induced cell killing, the inventors examined the viability of OVCAR8 and SKOV3ip1 cells stably expressing either microRNA incubated with clinically relevant concentrations of cisplatin. […] It should be noted that SKOV3ip1 cells tolerated only very low levels of miR-520a expression. The impact of cisplatin treatment on rates of apoptosis differed dramatically between the two cell lines.

[9] = tested on: OVCAR8 cells; experiment: as above; assay type: cell-based, human; conditions: OVCAR8 stable clones vs non-silencing mimic, cisplatin <5 μg/mL
Protocol: as §2, §3

[10] = tested on: SKOV3ip1 cells; experiment: Proliferation assay (MTS, Cell Titer 96 Aqueous One); assay type: cell-based, human; conditions: no cisplatin
Protocol: as §2

[11] = tested on: OVCAR8 cells; experiment: as above; assay type: cell-based, human; conditions: for Proliferation: no cisplatin
Protocol: as §2

[12] = tested on: CDC25c; experiment: Western blot of CDC25c in OVCAR8 cells; assay type: cell-based, human; conditions: OVCAR8, particularly when exposed to cisplatin; listed as miR-520g/h
Protocol: as §1

B1: hsa-mir-520h MI0003175 (nucleic acid, listed as Homo sapiens)
chain: UCCCAUGCUGUGACCCUCUAGAGGAAGCACUUUCUGUUUGUUGUCUGAGAAAAAACAAAGUGCUUCCCUUUAGAGUUACUGUUUGGGA
modifications: expressed or natural sequence
notes: synthetic mimic or stably expressed from pLemiR vector; written miR-520g/h interchangeably
**Q.** Which “phospho-CHK2 (T68) level” value [1] does the source give for B1 here?
**A.** Its value is “increased levels”.

**Q.** And the “Apoptosis (caspase 3/7)” value ([2]; SKOV3ip1, acute mimic transfection, no cisplatin)?
**A.** The value was “decreasing apoptosis”.

**Q.** And the “Caspase 3/7 expression” value ([2]; SKOV3ip1 clones stably expressing the microRNA, no cisplatin)?
**A.** The value was “inhibited”.

**Q.** And the “Apoptosis in presence of cisplatin” value ([2]; SKOV3ip1 stable clones, cisplatin treatment)?
**A.** The value was “significantly increased”.

**Q.** And the Apoptosis [3]?
**A.** Its Apoptosis is “no impact”.

**Q.** What about the “Caspase 3/7 expression” value ([4]; OVCAR8 clones stably expressing the microRNA, no cisplatin) of the same molecule?
**A.** Its value is “inhibited”.

**Q.** What about the “Apoptosis in presence of cisplatin” value ([4]; OVCAR8 stable clones, cisplatin up to 10 μg/mL, listed as miR-520g/h) of the same molecule?
**A.** Its value is “significantly decreased; also recorded: significantly lower rates of apoptosis”.

**Q.** And the Apoptosis [5]?
**A.** The Apoptosis was “no impact”.

**Q.** And the Apoptosis [6]?
**A.** The Apoptosis was “increase rates of apoptosis”.

**Q.** What about the “Number and size of intraperitoneal implants” value ([7]; OVCAR8 cells stably expressing the microRNA, intraperitoneal, no cisplatin, vs non-silencing control or empty vector, listed as miR-520g/h) of the same molecule?
**A.** Its value is “larger number of smaller xenografts; also recorded: large number of smaller implants”.

**Q.** And the “Total intraperitoneal tumor burden” value [7]?
**A.** Its value is “did not differ significantly”.

**Q.** What about the “Total intraperitoneal tumor burden” value ([7]; listed as miR-520g/h) of the same molecule?
**A.** Its value is “did not differ”.

**Q.** And the “Sensitization to cisplatin (viability)” value [8]?
**A.** The value was “significantly sensitized”.

**Q.** And the “Sensitization to cisplatin (viability)” value ([8]; listed as miR-520g/h)?
**A.** Its value is “appeared to sensitize”.

**Q.** And the “Sensitization to cisplatin (viability)” value [9]?
**A.** Its value is “significantly sensitized”.

**Q.** And the “Sensitization to cisplatin (viability)” value ([9]; listed as miR-520g/h)?
**A.** Its value is “sensitized”.

**Q.** And the Proliferation ([10]; SKOV3ip1, acute mimic transfection)?
**A.** The Proliferation was “significantly reduced”.

**Q.** And the Proliferation ([10]; SKOV3ip1 clones stably expressing the microRNA)?
**A.** Its Proliferation is “enhanced the proliferation”.

**Q.** And the Proliferation ([11]; OVCAR8, transient/acute mimic transfection vs non-silencing control)?
**A.** Its Proliferation is “significantly reduced”.

**Q.** What about the Proliferation ([11]; OVCAR8, transient/acute mimic transfection vs non-silencing control, listed as Mir-520g/h) of the same molecule?
**A.** Its Proliferation is “significantly increased”.

**Q.** What about the Proliferation ([11]; OVCAR8 clones stably expressing the microRNA) of the same molecule?
**A.** Its Proliferation is “enhanced the proliferation”.

**Q.** And the Increase in proliferation ([11]; mimic, transient, 96 hours following transfection, vs non-silencing control)?
**A.** The Increase in proliferation was 19%.

**Q.** And the “CDC25c and phospho-CDC25c protein level” value [12]?
**A.** Its value is “much lower; also recorded: decreased levels”.
